According to patent publication US6451312:

Columns and labels:
human endoglin (human) [1] = target: human endoglin (human) (UniProt P17813); experiment: FACS, corrected fluorescence intensity grade, A375M and T8
human endoglin (human) [2] = target: human endoglin (human) (UniProt P17813); experiment: competition FACS on HUVEC; unlabelled TEC-4 against biotinylated TEC-11 (competitor), ratio 1:1
human endoglin (human) [3] = target: human endoglin (human) (UniProt P17813); experiment: FACS, corrected fluorescence intensity grade, ECV-304
human endoglin (human) [4] = target: human endoglin (human) (UniProt P17813); experiment: competition FACS on HUVEC; unlabelled TEC-4 against biotinylated TEC-11 (competitor), ratio 1:100
human endoglin (human) [5] = target: human endoglin (human) (UniProt P17813); experiment: FACS, corrected fluorescence intensity grade, L-endoglin transfectant
human endoglin (human) [6] = target: human endoglin (human) (UniProt P17813); experiment: FACS, corrected fluorescence intensity grade, HUVEC
human endoglin (human) [7] = target: human endoglin (human) (UniProt P17813); experiment: FACS, corrected fluorescence intensity grade, MDA-MB-231 and SKBR3
human endoglin (human) [8] = target: human endoglin (human) (UniProt P17813); experiment: cell-based or functional assay
human endoglin (human) [9] = target: human endoglin (human) (UniProt P17813); experiment: FACS on HUVEC, half-maximal fluorescence
human endoglin (human) [10] = target: human endoglin (human) (UniProt P17813); experiment: indirect immunofluorescence FACS on HUVEC, 10 µg/ml
human endoglin (human) [11] = target: human endoglin (human) (UniProt P17813); experiment: FACS, corrected fluorescence intensity grade, U937
human endoglin (human) [12] = target: human endoglin (human) (UniProt P17813); experiment: FACS, corrected fluorescence intensity grade, HT-1080 and SAOS-2
human endoglin (human) [13] = target: human endoglin (human) (UniProt P17813); experiment: competition FACS on HUVEC; unlabelled TEC-11 against biotinylated TEC-4 (competitor), ratio 1:1
human endoglin (human) [14] = target: human endoglin (human) (UniProt P17813); experiment: FACS, 20 µg/ml TEC-11, sorted Endoglin^lo fraction of postconfluent HUVEC; SD in parentheses
human endoglin (human) [15] = target: human endoglin (human) (UniProt P17813); experiment: FACS, 20 µg/ml TEC-11, sorted Endoglin^hi fraction of postconfluent HUVEC; SD in parentheses

## TEC-4 (tumor endothelial cell antibody 4)
Human endoglin (human) [1]
  corrected fluorescence intensity (CFI): 5 to 25 cfi
Human endoglin (human) [2]
  percent blocking of biotinylated TEC-11: 1%
Human endoglin (human) [3]
  corrected fluorescence intensity (CFI): 25 to 50 cfi
Human endoglin (human) [4]
  percent blocking of biotinylated TEC-11: 20%
Human endoglin (human) [5]
  corrected fluorescence intensity (CFI): 50 to 100 cfi
Human endoglin (human) [6]
  corrected fluorescence intensity (CFI): > 100 cfi
Human endoglin (human) [7]
  corrected fluorescence intensity (CFI): 5 to 25 cfi
Human endoglin (human) [8]
  complement-mediated lysis of HUVEC (guinea pig complement, trypan blue): 48%
Human endoglin (human) [9]
  EC50: 4 µg/mL
Human endoglin (human) [10]
  specific mean fluorescence intensity (MFI): 200
Human endoglin (human) [11]
  corrected fluorescence intensity (CFI): 5 to 25 cfi
Human endoglin (human) [12]
  corrected fluorescence intensity (CFI): 5 to 25 cfi

## TEC-11 (tumor endothelial cell antibody 11)
Human endoglin (human) [1]
  corrected fluorescence intensity (CFI): 5 to 25 cfi
Human endoglin (human) [13]
  percent blocking of biotinylated TEC-4: 51%
Human endoglin (human) [3]
  corrected fluorescence intensity (CFI): 25 to 50 cfi
Human endoglin (human) [5]
  corrected fluorescence intensity (CFI): 50 to 100 cfi
Human endoglin (human) [14]
  MFI: 61.6
Human endoglin (human) [15]
  MFI: 270
Human endoglin (human) [6]
  corrected fluorescence intensity (CFI): > 100 cfi
Human endoglin (human) [7]
  corrected fluorescence intensity (CFI): 5 to 25 cfi
Human endoglin (human) [8]
  complement fixation relative to TEC-4: 100 fold
  complement-mediated lysis of HUVEC (guinea pig complement, trypan blue): > 50%
Human endoglin (human) [9]
  EC50: 0.4 µg/mL
Human endoglin (human) [10]
  specific mean fluorescence intensity (MFI): 200
Human endoglin (human) [11]
  corrected fluorescence intensity (CFI): 5 to 25 cfi
Human endoglin (human) [12]
  corrected fluorescence intensity (CFI): 5 to 25 cfi
